Assay results published in paper PMC8684745 (Molecular Biology of the Cell, 2021).
Each block holds one molecule with its values, some of them ahead of it.

Experiments:
[1] = target: Drp1/actin bundles (actin filaments prebundled by Cy5-Drp1) (human | rabbit) (UniProt O15027); experiment: TIRF microscopy
[2] = target: Drp1 (full-length human Drp1 isoform 3, Drp1 000) (human) (UniProt O00429); experiment: TIRF microscopy
AUC = target: the molecule itself; experiment: AUC

Sequence of Drp1/actin bundles (actin filaments prebundled by Cy5-Drp1) (human | rabbit) (O15027 whole entry, canonical isoform): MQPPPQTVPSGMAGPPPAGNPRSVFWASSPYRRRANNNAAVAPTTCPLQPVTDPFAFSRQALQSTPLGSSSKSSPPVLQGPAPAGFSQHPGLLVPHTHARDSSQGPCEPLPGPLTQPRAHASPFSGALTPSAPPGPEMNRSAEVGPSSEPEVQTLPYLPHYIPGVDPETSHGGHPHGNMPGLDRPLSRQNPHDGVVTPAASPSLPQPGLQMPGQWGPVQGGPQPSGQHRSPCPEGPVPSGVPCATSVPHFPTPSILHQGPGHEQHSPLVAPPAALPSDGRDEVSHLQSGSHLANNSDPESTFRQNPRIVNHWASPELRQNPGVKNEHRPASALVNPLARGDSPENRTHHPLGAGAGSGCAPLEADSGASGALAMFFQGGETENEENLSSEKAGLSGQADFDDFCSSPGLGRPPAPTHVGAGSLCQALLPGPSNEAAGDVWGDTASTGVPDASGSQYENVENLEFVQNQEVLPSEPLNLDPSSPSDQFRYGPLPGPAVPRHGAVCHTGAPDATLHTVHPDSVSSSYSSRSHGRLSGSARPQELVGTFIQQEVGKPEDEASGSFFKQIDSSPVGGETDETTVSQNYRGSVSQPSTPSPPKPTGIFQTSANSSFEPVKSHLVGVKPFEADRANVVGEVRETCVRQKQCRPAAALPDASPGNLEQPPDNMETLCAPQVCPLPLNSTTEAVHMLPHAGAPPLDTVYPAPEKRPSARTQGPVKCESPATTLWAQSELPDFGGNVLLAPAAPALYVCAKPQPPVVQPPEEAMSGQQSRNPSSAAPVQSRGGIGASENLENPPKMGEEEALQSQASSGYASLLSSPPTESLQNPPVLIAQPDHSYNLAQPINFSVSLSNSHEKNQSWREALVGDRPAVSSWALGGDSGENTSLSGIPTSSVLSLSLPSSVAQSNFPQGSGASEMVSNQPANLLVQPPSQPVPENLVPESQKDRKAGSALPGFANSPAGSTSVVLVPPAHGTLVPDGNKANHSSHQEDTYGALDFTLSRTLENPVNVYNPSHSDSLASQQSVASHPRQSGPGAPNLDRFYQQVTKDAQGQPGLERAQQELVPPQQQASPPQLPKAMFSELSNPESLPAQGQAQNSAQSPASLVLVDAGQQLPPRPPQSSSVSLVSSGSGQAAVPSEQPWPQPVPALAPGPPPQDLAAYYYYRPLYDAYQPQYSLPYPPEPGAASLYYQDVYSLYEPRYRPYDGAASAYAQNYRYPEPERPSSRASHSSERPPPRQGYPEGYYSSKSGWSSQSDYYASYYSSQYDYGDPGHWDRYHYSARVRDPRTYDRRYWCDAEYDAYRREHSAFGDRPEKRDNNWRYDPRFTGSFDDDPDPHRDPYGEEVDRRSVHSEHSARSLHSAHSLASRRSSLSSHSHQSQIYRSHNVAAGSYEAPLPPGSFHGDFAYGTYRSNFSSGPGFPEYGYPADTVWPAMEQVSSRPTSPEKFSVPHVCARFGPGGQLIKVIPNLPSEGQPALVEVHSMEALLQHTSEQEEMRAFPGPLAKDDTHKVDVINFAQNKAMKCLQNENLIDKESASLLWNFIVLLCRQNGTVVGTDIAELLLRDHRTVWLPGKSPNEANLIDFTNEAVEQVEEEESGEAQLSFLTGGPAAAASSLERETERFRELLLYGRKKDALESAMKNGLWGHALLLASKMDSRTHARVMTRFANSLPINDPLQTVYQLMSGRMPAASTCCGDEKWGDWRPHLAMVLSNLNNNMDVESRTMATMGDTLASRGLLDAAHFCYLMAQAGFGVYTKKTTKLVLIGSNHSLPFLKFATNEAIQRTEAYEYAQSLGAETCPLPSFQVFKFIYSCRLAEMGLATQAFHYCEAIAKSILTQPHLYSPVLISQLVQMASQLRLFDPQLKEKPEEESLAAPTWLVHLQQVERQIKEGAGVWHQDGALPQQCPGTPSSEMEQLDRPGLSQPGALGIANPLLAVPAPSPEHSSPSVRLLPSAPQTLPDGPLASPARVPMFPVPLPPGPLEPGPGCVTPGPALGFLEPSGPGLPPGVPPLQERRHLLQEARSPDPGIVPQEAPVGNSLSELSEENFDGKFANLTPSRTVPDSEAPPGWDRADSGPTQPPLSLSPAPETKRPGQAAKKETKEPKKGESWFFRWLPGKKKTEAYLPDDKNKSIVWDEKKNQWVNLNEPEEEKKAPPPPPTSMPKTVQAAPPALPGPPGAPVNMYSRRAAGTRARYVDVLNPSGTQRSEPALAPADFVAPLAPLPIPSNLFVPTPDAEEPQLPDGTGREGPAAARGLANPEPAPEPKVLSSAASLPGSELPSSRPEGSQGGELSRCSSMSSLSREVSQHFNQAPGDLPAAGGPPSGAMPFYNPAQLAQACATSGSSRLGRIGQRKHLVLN

percent of Mff-∆TM remaining after wash [1]: 50%
Molecule: Mff-∆TM (cytoplasmic region of human Mff isoform 4, C-terminally 6His-tagged) (from UniProt Q9GZY8-4 1-218) (domain or fragment)

fold less binding than Mff-∆TM [2]: 5 fold
Molecule: Mff-L2P (Mff-∆TM with L179P and L186P) (from UniProt Q9GZY8-4 1-218) (domain or fragment)

B1: GFP-CC (CC domain of human Mff isoform 4, amino acids 149–197, on the C-terminus of GFP) (domain or fragment)
chain: SGGGGISNIDTTIEGTSDDLTVVDAASLRRQIIKLNRRLQLLEEENKERAKREGGGS
stoichiometry N (AUC): 3
